Test results from patent US10065989B2, “Molecular sleds and uses thereof” (The Broad Institute, Inc., priority 2012, dated 2018).
Values joined by “and” are separate entries in the source; they are usually repeats but may differ in a detail not shown here. Identical values can stand only once. “Also recorded” adds a separate entry of the source. Like-named read-outs stand apart in the source and are kept apart here.

Assays:
lambda DNA = test: Single-molecule DNA sliding assay on flow-stretched DNA (TIRF microscopy); design: species or system bacteriophage lambda; one-dimensional diffusion constant: unit not given here; settings: for One-Dimensional Diffusion Constant (mean D1 ± SEM): lambda DNA, low salt 2-6 mM NaCl
Description: To determine whether AVP-pVIc complexes slide on DNA, Applicants used single-molecule fluorescence microscopy (FIG. 10C) with flow-stretched DNA, (FIG. 10D,E) (Kabata, H. et al. Visualization of single molecules of RNA polymerase sliding along DNA. Science 262, 1561-3 (1993); Harada, Y. et al. Single-molecule imaging of RNA polymerase-DNA interactions in real time. Biophys. J. 76, 709-715 (1999) and Blainey, P. C., van Oijen, A. M., Banerjee, A., Verdine, G. L. & Xie, X. S. A base-excision DNA-repair protein finds intrahelical lesion bases by fast sliding in contact with DNA. Proc Natl Acad Sci USA 103, 5752-7 (2006)). […] Biochemistry 40, 13237-13245 (2001)), and furthermore to diffuse rapidly over tens of thousands of base pairs before dissociating from the DNA. For example, the molecule whose motion is shown in the raw image data in FIG. 12A traveled more than 20,000 base pairs during a 0.9 sec binding event. Despite the optical resolution limit imposed by diffraction, the centroid position of each signal in each frame was determined with 11 nm spatial precision at 3.5 ms time resolution (Gelles, J., Schnapp, B. J. & Sheetz, M. P. Tracking kinesin-driven movements with nanometer-scale precision. Nature 331, 450-3 (1988) and Thompson, R. E., Larson, D. R. & Webb, W. W. Precise nanometer localization analysis for individual fluorescent probes. Biophys J 82, 2775-83 (2002)), FIG. 12B.
Flow cells containing bacteriophage lambda DNA immobilized at one end were constructed as described previously (Blainey, P. C., van Oijen, A. M., Banerjee, A., Verdine, G. L. & Xie, X. S. A base-excision DNA-repair protein finds intrahelical lesion bases by fast sliding in contact with DNA. Proc Natl Acad Sci USA 103, 5752-7 (2006)). Labeled samples of AVP-pVIc complexes were infused at concentrations of 1-2 nM at rates of 20-50 mL/hour. Flow rates were chosen to drive the longitudinal DNA fluctuation faster than the imaging frame rate (Blainey, P. C., van Oijen, A. M., Banerjee, A., Verdine, G. L. & Xie, X. S. A base-excision DNA-repair protein finds intrahelical lesion bases by fast sliding in contact with DNA. Proc Natl Acad Sci USA 103, 5752-7 (2006)). The assay buffers consisted of 10 mM MES (pH 6.5), 2-25 mM NaCl, 50 μM EDTA, 20 mM ethanol, 5 percent glycerol, and, where indicated in the text, reducing agent (DTT and mercaptoethanol gave equivalent results). “Low salt” measurements were conducted with 2-6 mM NaCl; “high salt” measurements were conducted with 20-25 mM NaCl.
Due to the speed and duration of sliding by AVP-pVIc complexes, these events were readily identifiable manually. All AVP-pVIc complex DNA-binding events noted were included in the analyses. Once events had been identified, signals were tracked using Gaussian centroid determination in the Matlab environment. Molecular trajectories were analyzed in Matlab by methods similar to those previously published (Blainey, P. C., van Oijen, A. M., Banerjee, A., Verdine, G. L. & Xie, X. S. A base-excision DNA-repair protein finds intrahelical lesion bases by fast sliding in contact with DNA. Proc Natl Acad Sci USA 103, 5752-7 (2006)).
A question is does pVIc by itself slide on DNA. To address this possibility, Applicants performed a sliding assay (Blainey et al., 2012, Activated Adenovirus Proteinase Slides Along Viral DNA Via One-Dimensional Diffusion to Locate and Process its Substrate and Blainey et al., 2009, Nonspecifically bound proteins spin while diffusing along DNA. Nat Struct Mol Biol 16, 1224-1229 and Blainey et al., 2006, A base-excision DNA-repair protein finds intrahelical lesion bases by fast sliding in contact with DNA. Proc Natl Acad Sci USA 103, 5752-5757) using pVIc labeled with Cy3B at Cys10′. […] The sliding assay, based upon total internal reflection fluorescence microscopy, used phage λ DNA molecules (48,502 base pairs) attached at one end to a glass cover slip surface by a biotin-streptavidin linkage. The area of the cover slip with DNA was placed within a flow cell. […]

dsDNA [1] = settings: 12-mer dsDNA, pH 7; McGrath et al. 2001; read-out: KD(app.); cited from earlier work
[2] = system: virion precursor proteins in heat-disrupted Ad2 ts-1 virions; test: Processing of virion precursor proteins in heat-disrupted ts-1 virus; type: biochemical
AVP [3] = target: T1, AVP (Human adenovirus C serotype 2, UniProt P03252); settings: cited from earlier work
T1 sequence (P03252 whole entry): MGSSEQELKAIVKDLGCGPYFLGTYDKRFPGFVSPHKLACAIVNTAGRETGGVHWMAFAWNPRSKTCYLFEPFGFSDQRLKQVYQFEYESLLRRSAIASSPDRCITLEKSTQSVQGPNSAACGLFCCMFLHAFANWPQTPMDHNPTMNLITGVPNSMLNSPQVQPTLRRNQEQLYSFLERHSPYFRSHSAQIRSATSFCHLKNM

dsDNA [4] = type: binding
Ad2 hexon [5] = target: T2, Ad2 hexon (human adenovirus serotype 2 (Ad2), UniProt P03277 2-968); test: fluorescence anisotropy under tight binding conditions; 20 nM Cy3B-pVI titrated with hexon
T2 construct: also called hexon trimer; major capsid protein hexon
T2 sequence (P03277 2-968 limits assumed): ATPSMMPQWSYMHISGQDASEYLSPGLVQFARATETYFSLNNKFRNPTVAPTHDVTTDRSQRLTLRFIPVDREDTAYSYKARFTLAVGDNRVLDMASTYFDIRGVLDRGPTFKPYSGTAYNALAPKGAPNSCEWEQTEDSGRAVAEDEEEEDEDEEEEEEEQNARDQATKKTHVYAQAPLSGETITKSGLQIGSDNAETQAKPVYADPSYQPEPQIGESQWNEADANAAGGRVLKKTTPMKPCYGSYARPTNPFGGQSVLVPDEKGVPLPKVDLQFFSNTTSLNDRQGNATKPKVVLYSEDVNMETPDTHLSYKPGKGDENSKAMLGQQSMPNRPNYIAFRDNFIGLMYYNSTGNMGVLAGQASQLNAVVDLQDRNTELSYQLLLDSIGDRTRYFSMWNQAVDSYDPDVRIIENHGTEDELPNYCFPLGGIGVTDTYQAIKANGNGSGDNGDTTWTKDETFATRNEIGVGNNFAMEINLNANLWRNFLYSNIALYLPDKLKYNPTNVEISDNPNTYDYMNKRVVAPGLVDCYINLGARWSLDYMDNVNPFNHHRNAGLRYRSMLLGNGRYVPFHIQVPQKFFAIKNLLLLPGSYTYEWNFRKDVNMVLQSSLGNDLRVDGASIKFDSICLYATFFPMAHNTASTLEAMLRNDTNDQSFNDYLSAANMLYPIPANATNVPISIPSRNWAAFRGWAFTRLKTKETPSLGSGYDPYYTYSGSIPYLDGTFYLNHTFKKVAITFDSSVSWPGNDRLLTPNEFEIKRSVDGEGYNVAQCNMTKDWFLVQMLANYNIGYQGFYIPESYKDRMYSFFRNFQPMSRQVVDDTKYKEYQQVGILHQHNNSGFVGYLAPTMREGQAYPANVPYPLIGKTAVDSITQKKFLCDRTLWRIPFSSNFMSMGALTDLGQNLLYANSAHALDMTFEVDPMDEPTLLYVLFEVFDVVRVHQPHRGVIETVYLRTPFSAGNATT

AVP [6] = target: T1, AVP
Description: Assays contained 3.38 μM pVI, 6.54 μM AVP and either 3.38 μM 36 bp dsDNA or no DNA. After the indicated time intervals, aliquots were removed and assayed for enzymatic activity. 100% activity is the enzyme activity of 3.38 μM AVP-pVIc complexes bound to DNA. (∘) plus DNA, (∇) minus DNA. […] After 30 min. at 21° C., the amount of AVP-pVIc formed was assayed. (C) SDS-PAGE (15% polyacrylamide gel) analysis of the reactions in (B) except that the concentrations of pVI, AVP and DNA were 26-fold higher. The DNA concentration in the reactions fractionated on the gel increased from left to right. In B and C, parentheses including the same number indicates the ratio of protein to DNA in B and C is the same.
Another question is if DNA is required for the activation of AVP by pVI. Applicants repeated the experiment but in the presence of dsDNA.
To see if both enzyme (AVP) and substrate (pVI) must be on the same molecule of DNA for activation to occur or whether they can interact when bound to different DNA molecules, Applicants incubated increasing concentrations of DNA with a mixture of AVP and pVI, each at a concentration such that both should bind to DNA at any DNA concentration. And then Applicants assayed for enzyme activation (FIG. 6B).

Ad2 hexon [7] = target: T2, Ad2 hexon; test: fluorescence quenching; 1 nM Cy3B-pVI titrated with hexon (monomer concentrations), 20 mM Hepes pH 7, 150 mM NaCl
[8] = Detergent requirement for solubility, dynamic light scattering; type: physicochemical
Description: Briefly, the gene for pVI and an expressible gene of VI were synthesized by PCR and inserted into expression vectors. The vectors for pVI and VI were used to transform Escherichia coli BL21 (DE3) Codon Plus cells. Recombinant proteins were expressed in autoinduction media (Studier, F. W. (2005) Protein Expr. Purif. 41, 207-234). Purification of pVI and VI was accomplished by cation-exchange and size exclusion chromatography. The proteins were about 99% pure. pVI and VI required a detergent to keep them in solution. Below a concentration of DDM of 0.0125%, the proteins were insoluble, as determined by dynamic light scattering.

Ad2 hexon [9] = target: T2, Ad2 hexon; test: summary sentence of Example 1; fluorescence titration of Cy3B-pVI with hexon

AVP: adenovirus proteinase, a 23 kDa cysteine proteinase
sliding along DNA (in words) (lambda DNA): does not slide effectively along DNA
Kd (dsDNA [1]): 63 nM and 63.1 nM
processing of precursor proteins after DNase treatment ([2]; heat disrupted ts-1 virus incubated with DNase, 2 or 24 hours): no processing of pVI or the other precursor proteins was observed
time within which all pVI was processed ([2]; heat disrupted ts-1 virus, DNA present): ≤ 24 hours
increase of relative kcat/Km of AVP (AVP [3]; in the presence of DNA): 110 fold
increase of relative kcat/Km of AVP (AVP [3]; in the presence of pVIc): 1130 fold

SFRRCGLRQVK [Random peptide, reference compound]
sliding along DNA (in words) (lambda DNA): No Diffusion
sliding along DNA (in words) (lambda DNA; listed as SFRRCGLRQVK): No one-dimensional diffusion of the peptide was observed; also recorded: does not slide along the DNA
Kd (dsDNA [4]; 12-mer dsDNA, pH 8, peptide labeled at Cys5′ with Cy3B, read-out: Kd(app.)): 646 ± 75 nM
cofactor activity in stimulating AVP (AVP [3]; up to a concentration of 60 M, Brown and Mangel 2004): did not act like a cofactor in stimulating AVP

SGPSIVHRKCF [11-Actin-C, last 11 amino acids of β-actin]
One-Dimensional Diffusion Constant (mean D1 ± SEM) (lambda DNA): 6.40 (bp)^2/s × 10^−6

SIVHRKCF [8-Actin-C, 8-amino acid peptide from the C-terminus of β-actin]
One-Dimensional Diffusion Constant (mean D1 ± SEM) (lambda DNA): 5.45 (bp)^2/s × 10^−6
Kd (dsDNA [4]; 12-mer dsDNA, pH 7, Cy3B label on peptide, read-out: Kd(app.)): 5 ± 0.78 nM

B1: precursor to adenovirus protein VI, pVI (other)
chain: MEDINFASLAPRHGSRPFMGNWQDIGTSNMSGGAFSWGSLWSGIKNFGSTIKNYGSKAWNSSTGQMLRDKLKEQNFQQKVVDGLASGISGVVDLANQAVQNKINSKLDPRPPVEEPPPAVETVSPEGRGEKRPRPDREETLVTQIDEPPSYEEALKQGLPTTRPIAPMATGVLGQHTPVTLDLPPPADTQQKPVLPGPSAVVVTRPSRASLRRAASGPRSMRPVASGNWQSTLNSIVGLGVQSLKRRRCF
notes: range 1-250; also called Cy3B-pVI; adenovirus precursor protein pVI
stoichiometry of binding of pVI to hexon monomer (Ad2 hexon [5]): 1 pVI per hexon monomer
rate of AVP activation relative to rate at peak DNA concentration (50 nM) (AVP [6]; 77 nM pVI, 130 nM AVP, 320 nM 36-mer dsDNA): 12%
pVI cleaved and used to form active AVP-pVIc complexes (AVP [6]; 3.38 μM pVI, 6.54 μM AVP, 3.38 μM 36 bp dsDNA, by one hour): 100%
enzymatic activity after mixing AVP with pVI (AVP [6]; no DNA): no enzymatic activity was detected
time by which all pVI had disappeared (SDS-PAGE) (AVP [6]; with AVP and 36 bp dsDNA): ≤ 10 minutes
Kd (Ad2 hexon [7]): 1.8 nM
minimum DDM concentration required to remain in solution [8]: 0.0125%
one-dimensional diffusion constant (lambda DNA): 1.45×10^6
one-dimensional diffusion constant (mean) (lambda DNA; flow-stretched lambda DNA, low salt): 1.45±0.13×10^6 (bp)^2/s and 1.45×10^6 (bp)^2/s
Kd (dsDNA [4]; 12-mer dsDNA, 0.02 M NaCl, read-out: KD): 55 nM
Kd (dsDNA [4]; 12-mer dsDNA, 0.03 M NaCl, read-out: KD): 155 nM
Kd (dsDNA [4]; 12-mer dsDNA, 0.04 M NaCl, read-out: KD): 328 nM
Kd (dsDNA [4]; 12-mer dsDNA, 0.05 M NaCl, read-out: KD): 449 nM
Kd (dsDNA [4]; 12-mer dsDNA, 0.06 M NaCl, read-out: KD): 1040 nM
Kd (dsDNA [4]; 33-mer dsDNA, 1 mM MgCl2, buffer B pH 8, 21° C., read-out: KD(app.)): 35 nM
Kd (Ad2 hexon [9]): 1.9 nM and 1.85 nM
